From the supplement of paper PMC10899765 come the findings set out here.

What all share (conditions): 20 nM; 72 h
For data set [1], the system named is MCF10A. Briefly: percent viability (nuclei count relative to siNT); higher = more viable cells. The procedure:
(§1)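 After 72 h, cells were fixed and stained with Hoechst and anti-fibrillarin, and nucleoli per nucleus were counted with CellProfiler. Values are plate-adjusted percent effect for the one-nucleolus and 5+ nucleoli phenotypes, normalised to siNT (0%) and to the positive controls siNOL11 or siKIF11 (100%), as the mean of biological triplicates. Percent viability is the nuclei count relative to siNT.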

The test system of data set [2] is MCF10A. Briefly: one-nucleolus phenotype percent effect (relative to siNT 0% and siNOL11 100%); higher = more cells with one nucleolus (ribosome biogenesis inhibition). The procedure: as §1
Data set [3] deals with MCF10A. Briefly: 5+ nucleoli phenotype percent effect (relative to siNT 0% and siKIF11 100%); higher = more cells with five or more nucleoli. The procedure: as §1

Several values for one entry are separate records, joined by “and”; a condition that tells them apart may be missing. Equal entries are not always repeated.

“AAGCUUUUUGCUCGAAUUAUGU [hsa-miR-208b-5p]”: the percent viability in data set [1] stood at 108%. Besides, the “one-nucleolus phenotype percent effect” value in data set [2] was -24.2%. Also, the “5+ nucleoli phenotype percent effect” value in data set [3] is -1.23%.
On the same counts, the results for “AAAAGUAAUUGUGGUUUUGGCC [hsa-miR-548b-5p]” are 131%, -24.3% and 36.5%.
Regarding UGUGACUGGUUGACCAGAGGGG [hsa-miR-134], in data set [1], the percent viability is 28%. In data set [2], the “one-nucleolus phenotype percent effect” value was 31.9%. Besides, the “5+ nucleoli phenotype percent effect” value in data set [3] was -26.5%.
On the same counts, the results for CAAAGUUUAAGAUCCUUGAAGU [hsa-miR-561-3p] are 182%, -26.2% and 23.4%.
For “UUGUCUCUUGUUCCUCACACAG [hsa-miR-6818-3p]” the same measures were 57.7%, -11.1% and 16.4%.
For “GUGCAUGGCUGUAUAUAUAACA [hsa-miR-5011-3p]” the same measures were 56.9%, 0.75% and 19.5%.
With “CCUCCAAAGGGAAGCGCUUUCUGUU [hsa-miR-519d-5p]”, the percent viability in data set [1] came out at 65.3%. Besides, the “one-nucleolus phenotype percent effect” value in data set [2] was -10.6%. For the same sequence, the “5+ nucleoli phenotype percent effect” value in data set [3] came out at 21.8%.
For CAUGCUAGGAUAGAAAGAAUGG [hsa-miR-3146], the percent viability in data set [1] was 30.5%. In data set [2], the “one-nucleolus phenotype percent effect” value was determined as 15.7%. Further, the “5+ nucleoli phenotype percent effect” value in data set [3] is -22.8%.
On the same counts, the results for GGUGGCCCGGCCGUGCCUGAGG [hsa-miR-663b] are 124%, -23.6% and 47.3%.
For “ACGGGUUAGGCUCUUGGGAGCU [hsa-miR-125b-1-3p]” the same measures were 53.9%, 13.6% and 15.9%.
On the same counts, the results for AAGGGAAGAUGGUGACCAC [hsa-miR-9500] are 26%, 15.1% and -15.3%.
In the case of “UGAGCGCCUCGACGACAGAGCCG [hsa-miR-339-3p]”, the percent viability in data set [1] worked out at 82.2%. Further, the “one-nucleolus phenotype percent effect” value in data set [2] is -25.2%. Besides, in data set [3], the “5+ nucleoli phenotype percent effect” value is 27%.
Take ACUGGACUUGGAGUCAGAAA [hsa-miR-378d]: in data set [1], the percent viability was 25.4% and 31.6%. Moreover, in data set [2], the “one-nucleolus phenotype percent effect” value is 2.4% and 10.6%. In data set [3], the “5+ nucleoli phenotype percent effect” value is 9.46% and 4.63%.
For GUCACUGAUGUCUGUAGCUGAG [hsa-miR-4420], the percent viability in data set [1] came out at 87.4%. In data set [2], the “one-nucleolus phenotype percent effect” value is -18.2%. The “5+ nucleoli phenotype percent effect” value in data set [3] turned out to be 1.76%.
For “AAGUUCUGUUAUACACUCAGGC [hsa-miR-148b-5p]” the same measures were 37.1%, 11.3% and -28.2%.
For AAUUGCACGGUAUCCAUCUGUA [hsa-miR-363-3p] the same measures were 63.9%, 5.76% and -15.8%.
UGCUUCCUUUCAGAGGGU [hsa-miR-516a-3p]: the percent viability in data set [1] was determined as 100%. In data set [2], the “one-nucleolus phenotype percent effect” value was -10.2%. The “5+ nucleoli phenotype percent effect” value in data set [3] is -23%.
On the same counts, the results for AGAGGUAGGUGUGGAAGAA [hsa-miR-4458] are 42.7%, -20.7% and 36.9%.
On the same counts, the results for “CCCUGUGCCCGGCCCACUUCUG [hsa-miR-1914-5p]” are 90.2%, -13.8% and 1.43%.
For “GAGAGGAACAUGGGCUCAGGACA [hsa-miR-6859-5p]” the same measures were 75.5%, -24.3% and 41.6%.
For the sequence UGUAACAGCAACUCCAUGUGGA [hsa-miR-194-5p], the percent viability in data set [1] amounted to 84.3%. For the same sequence, in data set [2], the “one-nucleolus phenotype percent effect” value came out at 8.64%. Also, the “5+ nucleoli phenotype percent effect” value in data set [3] was -7.22%.
On the same counts, the results for GUGAGUGUGGAUCCUGGAGGAAU [hsa-miR-4658] are 52.7%, -8.09% and 0.899%.
In the case of “GAAAGCGCUUCCCUUUGCUGGA [hsa-miR-518a-3p]”, the percent viability in data set [1] was found to be 59.1%. For the same sequence, the “one-nucleolus phenotype percent effect” value in data set [2] was determined as 17.4%. Further, the “5+ nucleoli phenotype percent effect” value in data set [3] is -15.5%.
“CACUGCAUUCCUGCUUGGCCCAG [hsa-miR-6807-3p]”: in data set [1], the percent viability was determined as 48.2%. Besides, in data set [2], the “one-nucleolus phenotype percent effect” value was -9.99%. In data set [3], the “5+ nucleoli phenotype percent effect” value was found to be 6.87%.
Take “UUCUGGAUAUGAAGACAAUCAA [hsa-miR-4782-5p]”: in data set [1], the percent viability came out at 16.3%. In data set [2], the “one-nucleolus phenotype percent effect” value was 44.9%. Further, the “5+ nucleoli phenotype percent effect” value in data set [3] was -38.6%.
For GAACGGCUUCAUACAGGAGUU [hsa-miR-337-5p] the same measures were 53.8%, 9.16% and -25.8%.
Regarding UAGAUAAAAUAUUGGUACCUG [hsa-miR-577], the percent viability in data set [1] is 113%. Further, the “one-nucleolus phenotype percent effect” value in data set [2] is -23.7%. Besides, the “5+ nucleoli phenotype percent effect” value in data set [3] was found to be 29.6%.
For UUGAGGAAAAGAUGGUCUUAUU [hsa-miR-3915] the same measures were 36.5%, -3.96% and -19%.
For UACUUGGAAAGGCAUCAGUUG [hsa-miR-890] the same measures were 21%, 49.1% and -34.1%.
For “ACAGUAGUCUGCACAUUGGUUA [hsa-miR-199a-3p]” the same measures were 67.2%, -13.9% and 18.7%.
With AGAGCUGGCUGAAGGGCAG [hsa-miR-4487], in data set [1], the percent viability is 18.7%. The “one-nucleolus phenotype percent effect” value in data set [2] is 25.5%. Also, in data set [3], the “5+ nucleoli phenotype percent effect” value was 16.5%.
For UUAUUGCUUAAGAAUACGCGUAG [hsa-miR-137] the same measures were 114%, 47.7% and -22.6%.
Turning to “CUUCUGAUCAAGAUUUGUGGUG [hsa-miR-4762-3p]”, in data set [1], the percent viability amounted to 30.5%. In data set [2], the “one-nucleolus phenotype percent effect” value turned out to be 18.9%. Moreover, the “5+ nucleoli phenotype percent effect” value in data set [3] was -38.7%.
On the same counts, the results for “AACUGAACCAGGAGUGAGCUUCG [hsa-miR-4724-5p]” are 77.9%, 6.7% and -1.37%.
With GCGAGGACCCCUCGGGGUCUGAC [hsa-miR-611], the percent viability in data set [1] was 121%. In addition, the “one-nucleolus phenotype percent effect” value in data set [2] is -31.1%. In addition, the “5+ nucleoli phenotype percent effect” value in data set [3] came out at 45.7%.
Take GGUAUCCGUUUGGGGAUGGU [hsa-miR-3713]: the percent viability in data set [1] was 23.5%. Moreover, the “one-nucleolus phenotype percent effect” value in data set [2] turned out to be 11.4%. Further, in data set [3], the “5+ nucleoli phenotype percent effect” value is -27.6%.
On the same counts, the results for “GCGCUGACCCGCCUUCUCCGCA [hsa-miR-6825-3p]” are 108%, -15% and 45.7%.
UAGCAAAAACUGCAGUUACUUU [hsa-miR-548p]: in data set [1], the percent viability was found to be 114%. Further, in data set [2], the “one-nucleolus phenotype percent effect” value was -21.8%. Further, the “5+ nucleoli phenotype percent effect” value in data set [3] was 17.2%.
On the same counts, the results for AAAAGUGAUUGCAGUGUUUG [hsa-miR-548ah-5p] are 114%, -15.3% and 17.4%.
On the same counts, the results for ACCCCACUCCUGGUACC [hsa-miR-4286] are 48.7%, -13.8% and 39.7%.
For UCUCUGGUCUUGCCACCCCAG [hsa-miR-6824-3p] the same measures were 26.4%, 16.2% and -18.8%.
Regarding AAUCGUACAGGGUCAUCCACUU [hsa-miR-487b], the percent viability in data set [1] was determined as 59.9%. Further, the “one-nucleolus phenotype percent effect” value in data set [2] is -10.7%. Moreover, the “5+ nucleoli phenotype percent effect” value in data set [3] was determined as 24.3%.
On the same counts, the results for UCCGGUUCUCAGGGCUCCACC [hsa-miR-671-3p] are 15.2%, 54.3% and -33.5%.
On to GGUGCAGUGCUGCAUCUCUGGU [hsa-miR-143-5p], for which the percent viability in data set [1] came out at 89.5%. Moreover, the “one-nucleolus phenotype percent effect” value in data set [2] was -7.79%. Besides, the “5+ nucleoli phenotype percent effect” value in data set [3] was -0.693%.
For “GCGGGGGUGGCGGCGGCAUCCC [hsa-miR-4787-5p]” the same measures were 86.7%, -21.5% and 25.2%.
For AUAGUGGUUGUGAAUUUACCUU [hsa-miR-4460] the same measures were 33.9%, 11.2% and -22.1%.
Take UGGAAAAAACUGGUGUGUGCUU [hsa-miR-3148]: the percent viability in data set [1] amounted to 35.9%. Further, the “one-nucleolus phenotype percent effect” value in data set [2] is -7.81%. The “5+ nucleoli phenotype percent effect” value in data set [3] is -1.39%.
For CUUGGGGCAUGGAGUCCCA [hsa-miR-4260] the same measures were 37.7%, -6.43% and 9.54%.
